Source: article PMC5558740

Target: CX3CR1 2-21 (UniProt P49238)
Test: affinity chromatography on CX3CR1 peptide-Sepharose, dot blot
Details: reference: Tau42 not phosphorylated; sites S396

Sequence of CX3CR1 2-21 (P49238 whole entry, looked up, tested part not stated): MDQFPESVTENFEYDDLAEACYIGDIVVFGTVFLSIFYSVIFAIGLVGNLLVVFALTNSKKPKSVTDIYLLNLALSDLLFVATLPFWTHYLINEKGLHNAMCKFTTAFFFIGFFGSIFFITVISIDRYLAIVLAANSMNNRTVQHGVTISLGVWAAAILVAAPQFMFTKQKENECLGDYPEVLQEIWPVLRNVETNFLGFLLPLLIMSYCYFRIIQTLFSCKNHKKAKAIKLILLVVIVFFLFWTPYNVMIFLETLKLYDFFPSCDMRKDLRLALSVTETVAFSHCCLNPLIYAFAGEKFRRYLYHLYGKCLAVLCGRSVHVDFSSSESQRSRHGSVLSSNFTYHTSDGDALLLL

- other: elution fraction number: weaker; reference 4
Substance: Tau (Tau42) (from UniProt P10636-8) Tau42 phosphorylated by GSK-3β
